The values that follow come from US20160213766A1 (VENTRIA BIOSCIENCE, published 2016).

This data set concerns the molecule itself. Put plainly: Western blot under non-reducing, non-heated conditions; self-association. (A western blot detects proteins with antibodies after separation by electrophoresis.)

B1: rice-derived CTB.OspA fusion protein (other)
chain: TPQNITDLCAEYHNTQIHTLNDKIFSYTESLAGKREMAIITFKNGATFQVEVPGSQHIDSQKKAIERMKDTLRIAYLTEAKVEKLCVWNNKTPHAIAAISMANPGPGPGCKQNVSSLDEKNSVSVDLPGEMKVLVSKEKNKDGKYDLIATVDKLELKGTSDKNNGSGVLEGVKADKSKVKLTISDDLGQTTLEVFKEDGKTLVSKKVTSKDKSSTEEKFNEKGEVSEKIITRADGTRLEYTGIKSDGSGKAKEVLKGYVLEGTLTAEKTTLVVKEGTVTLSKNIAKSGEVSVELNDADSSAATKKTAAWNSGTSTLTITVNSKKTKDLVFTKENTITVQQYDSAGTKLEGSAVEITKLDEIKNALK
notes: also called OspA-CTB fusion protein; rice CTB.OspA fusion protein
Regarding B1, the binding result is on record as “binds”.
